# According to IntAct's records for PubMed 12826668:
# B1: Disabled homolog 1 (Mus musculus), P97318 (parent)
# chain: MSTETELQVAVKTSAKKDSRKKGQDRSEATLIKRFKGEGVRYKAKLIGIDEVSAARGDKLCQDSMMKLKGVVAGARSKGEHKQKIFLTISFGGIKIFDEKTGALQHHHAVHEISYIAKDITDHRAFGYVCGKEGNHRFVAIKTAQAAEPVILDLRDLFQLIYELKQREELEKKAQKDKQCEQAVYQTILEEDVEDPVYQYIVFEAGHEPIRDPETEENIYQVPTSQKKEGVYDVPKSQPNSQPLEDFESRFAAATPNRNLSMDFDELLEATKVSAVTQLELFGDMSTPPDITSPPTPATPGDAFLPSSSQTLPGSADVFGSMSFGTAAVPSGYVAMGAVLPSFWGQQPLVQQQIAMGAQPPVAQVIPGAQPIAWGQPGLFPATQQAWPTVAGQFPPAAFMPTQTVMPLAAAMFQGPLTPLATVPGTNDSARSSPQSDKPRQKMGKESFKDFQMVQPPPVPSRKPDQPSLTCTSEAFSSYFNKVGVAQDTDDCDDFDISQLNLTPVTSTTPSTNSPPTPAPRQSSPSKSSASHVSDPTADDIFEEGFESPSKSEEQEAPDGSQASSTSDPFGEPSGEPSGDNISPQDGS
# partner: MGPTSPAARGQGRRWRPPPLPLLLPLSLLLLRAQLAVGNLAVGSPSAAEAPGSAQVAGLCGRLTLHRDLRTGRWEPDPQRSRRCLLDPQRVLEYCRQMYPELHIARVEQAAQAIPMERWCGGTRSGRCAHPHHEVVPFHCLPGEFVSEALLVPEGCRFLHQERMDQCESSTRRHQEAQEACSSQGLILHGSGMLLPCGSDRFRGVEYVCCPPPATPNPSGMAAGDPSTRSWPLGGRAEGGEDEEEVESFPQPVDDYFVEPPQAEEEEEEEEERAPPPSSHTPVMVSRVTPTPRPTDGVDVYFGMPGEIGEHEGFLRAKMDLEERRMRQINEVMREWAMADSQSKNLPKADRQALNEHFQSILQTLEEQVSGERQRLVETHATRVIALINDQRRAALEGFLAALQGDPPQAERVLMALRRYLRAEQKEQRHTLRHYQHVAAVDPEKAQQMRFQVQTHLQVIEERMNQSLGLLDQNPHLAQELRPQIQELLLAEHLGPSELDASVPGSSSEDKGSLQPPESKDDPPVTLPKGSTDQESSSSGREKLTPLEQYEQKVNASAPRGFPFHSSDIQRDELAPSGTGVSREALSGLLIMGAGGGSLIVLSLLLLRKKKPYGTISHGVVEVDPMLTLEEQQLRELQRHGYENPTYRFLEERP
# Variants of: B1
# Settings: with aplp1_mouse Aplp1, Q03157
row,effect of a mutation on the interaction,Variant
1,disrupting interaction,MSTETELQVAVKTSAKKDSRKKGQDRSEATLIKRFKGEGVRYKAKLIGIDEVSAARGDKLCQDSMMKLKGVVAGARSKGEHKQKIFLTISFGGIKIFDEKTGALQHHHAVHEITYIAKDITDHRAFGYVCGKEGNHRFVAIKTAQAAEPVILDLRDLFQLIYELKQREELEKKAQKDKQCEQAVYQTILEEDVEDPVYQYIVFEAGHEPIRDPETEENIYQVPTSQKKEGVYDVPKSQPNSQPLEDFESRFAAATPNRNLSMDFDELLEATKVSAVTQLELFGDMSTPPDITSPPTPATPGDAFLPSSSQTLPGSADVFGSMSFGTAAVPSGYVAMGAVLPSFWGQQPLVQQQIAMGAQPPVAQVIPGAQPIAWGQPGLFPATQQAWPTVAGQFPPAAFMPTQTVMPLAAAMFQGPLTPLATVPGTNDSARSSPQSDKPRQKMGKESFKDFQMVQPPPVPSRKPDQPSLTCTSEAFSSYFNKVGVAQDTDDCDDFDISQLNLTPVTSTTPSTNSPPTPAPRQSSPSKSSASHVSDPTADDIFEEGFESPSKSEEQEAPDGSQASSTSDPFGEPSGEPSGDNISPQDGS [S114T]
2,decreasing interaction,MSTETELQVAVKTSAKKDSRKKGQDRSEATLIKRFKGEGVRYKAKLIGIDEVSAARGDKLCQDSMMKLKGVVAGARSKGEHKQKIFLTISFGGIKIFDEKTGALQHHHAVHEISYIAKDITDHRAFGYVCGKEGNRRFVAIKTAQAAEPVILDLRDLFQLIYELKQREELEKKAQKDKQCEQAVYQTILEEDVEDPVYQYIVFEAGHEPIRDPETEENIYQVPTSQKKEGVYDVPKSQPNSQPLEDFESRFAAATPNRNLSMDFDELLEATKVSAVTQLELFGDMSTPPDITSPPTPATPGDAFLPSSSQTLPGSADVFGSMSFGTAAVPSGYVAMGAVLPSFWGQQPLVQQQIAMGAQPPVAQVIPGAQPIAWGQPGLFPATQQAWPTVAGQFPPAAFMPTQTVMPLAAAMFQGPLTPLATVPGTNDSARSSPQSDKPRQKMGKESFKDFQMVQPPPVPSRKPDQPSLTCTSEAFSSYFNKVGVAQDTDDCDDFDISQLNLTPVTSTTPSTNSPPTPAPRQSSPSKSSASHVSDPTADDIFEEGFESPSKSEEQEAPDGSQASSTSDPFGEPSGEPSGDNISPQDGS [H136R]
3,disrupting interaction,MSTETELQVAVKTSAKKDSRKKGQDRSEATLIKRFKGEGVRYKAKLIGIDEVSAARGDKLCQDSMMKLKGVVAGARSKGEHKQKIFLTISFGGIKIFDEKTGALQHHHAVHEISYIAKDITDHRAFGYVCGKEGNHRFVAIKTAQAAEPVILDLRDLVQLIYELKQREELEKKAQKDKQCEQAVYQTILEEDVEDPVYQYIVFEAGHEPIRDPETEENIYQVPTSQKKEGVYDVPKSQPNSQPLEDFESRFAAATPNRNLSMDFDELLEATKVSAVTQLELFGDMSTPPDITSPPTPATPGDAFLPSSSQTLPGSADVFGSMSFGTAAVPSGYVAMGAVLPSFWGQQPLVQQQIAMGAQPPVAQVIPGAQPIAWGQPGLFPATQQAWPTVAGQFPPAAFMPTQTVMPLAAAMFQGPLTPLATVPGTNDSARSSPQSDKPRQKMGKESFKDFQMVQPPPVPSRKPDQPSLTCTSEAFSSYFNKVGVAQDTDDCDDFDISQLNLTPVTSTTPSTNSPPTPAPRQSSPSKSSASHVSDPTADDIFEEGFESPSKSEEQEAPDGSQASSTSDPFGEPSGEPSGDNISPQDGS [F158V]
